Test system: peptide library, one residue held at a place counted from the S/T acceptor
Experiment: relative phosphorylation of the sub-library (ratio to the mean residue at this position); higher = residue favoured
Procedure, shortened: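 Spots on streptavidin membranes were phosphorimaged and quantified by densitometry to measure phosphorylation of biotinylated degenerate peptide sub-libraries by purified recombinant kinases, human or orthologue constructs. The reactions ran in 384-well plates for 90 min under kinase-specific conditions, with peptides at 50 μM and 50 μM ATP spiked with γ-32P-ATP. Relative sub-library phosphorylation is the ratio to the mean residue at that position.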

Chain of GSK3B, construct: Full length, human (P49841 whole entry, looked up): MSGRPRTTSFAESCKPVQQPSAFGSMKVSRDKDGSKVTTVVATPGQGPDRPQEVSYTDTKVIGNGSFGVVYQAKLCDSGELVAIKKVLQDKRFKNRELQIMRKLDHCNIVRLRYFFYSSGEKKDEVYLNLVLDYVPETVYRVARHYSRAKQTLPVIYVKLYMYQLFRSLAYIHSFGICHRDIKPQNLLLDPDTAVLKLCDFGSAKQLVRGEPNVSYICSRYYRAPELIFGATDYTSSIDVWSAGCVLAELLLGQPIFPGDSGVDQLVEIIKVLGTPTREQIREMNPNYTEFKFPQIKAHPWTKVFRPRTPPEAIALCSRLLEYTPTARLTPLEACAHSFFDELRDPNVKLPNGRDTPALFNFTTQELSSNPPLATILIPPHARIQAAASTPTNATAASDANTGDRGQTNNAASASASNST
Chain of PRKG2, construct: Full length, human (Q13237 whole entry, looked up): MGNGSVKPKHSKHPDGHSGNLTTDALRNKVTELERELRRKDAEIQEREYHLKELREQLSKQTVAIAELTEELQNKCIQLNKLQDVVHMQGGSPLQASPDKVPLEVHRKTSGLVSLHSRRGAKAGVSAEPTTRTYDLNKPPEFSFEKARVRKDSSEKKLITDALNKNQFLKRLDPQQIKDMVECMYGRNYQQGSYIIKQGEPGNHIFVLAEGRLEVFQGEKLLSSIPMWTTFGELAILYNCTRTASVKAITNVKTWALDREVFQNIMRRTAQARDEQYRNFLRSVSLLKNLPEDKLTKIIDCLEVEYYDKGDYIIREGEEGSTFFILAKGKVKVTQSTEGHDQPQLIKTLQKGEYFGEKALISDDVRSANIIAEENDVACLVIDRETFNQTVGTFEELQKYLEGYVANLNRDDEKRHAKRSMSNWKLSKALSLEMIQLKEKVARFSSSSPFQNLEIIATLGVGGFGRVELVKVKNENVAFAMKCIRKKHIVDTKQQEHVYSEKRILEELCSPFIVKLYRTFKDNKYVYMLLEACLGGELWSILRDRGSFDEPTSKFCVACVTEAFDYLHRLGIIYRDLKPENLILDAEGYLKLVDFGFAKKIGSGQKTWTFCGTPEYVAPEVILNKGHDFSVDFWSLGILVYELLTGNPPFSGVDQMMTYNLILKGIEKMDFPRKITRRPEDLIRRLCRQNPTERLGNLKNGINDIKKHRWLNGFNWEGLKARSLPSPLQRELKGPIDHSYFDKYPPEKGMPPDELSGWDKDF

GSK3B, construct: Full length, human (from UniProt P49841)
relative phosphorylation
Conditions	at +1	at +2	at +3	at +4	at -1	at -2	at -3	at -4	at -5
A fixed	0.927	1.01	0.893	0.871	1.05	1.09	1.63	1.02	1.15
D fixed	0.826	0.857	0.911	0.938	0.885	0.92	0.898	0.969	0.83
E fixed	0.818	0.917	1.23	2.42	0.855	0.898	0.865	0.851	0.83
F fixed	0.942	1.05	1.06	0.871	0.863	0.855	0.812	0.918	1.05
G fixed	0.928	0.92	0.966	0.843	1.17	1.1	1.47	1.18	1.21
H fixed	0.985	1.16	1.1	0.988	1.02	0.885	0.883	0.989	1.02
I fixed	1.02	0.984	0.929	0.795	0.889	1.01	0.871	0.913	1
K fixed	1.02	1.02	1.01	0.983	1.1	1.12	0.935	1.11	0.979
L fixed	0.966	0.994	0.923	0.849	0.916	0.882	0.785	0.966	1.03
M fixed	0.975	0.99	1.06	0.911	1.08	0.882	0.891	0.943	0.968
N fixed	0.963	1.12	0.983	0.992	1.04	0.935	0.899	1.02	0.855
P fixed	1.77	0.904	0.972	0.942	1.18	1.23	1.13	1.08	1.1
Q fixed	1	1.09	0.986	0.92	1.09	0.931	0.889	0.942	0.895
R fixed	1.01	1.05	1.05	0.848	1.06	1.48	1.36	1.06	0.973
V fixed	1.02	0.908	0.887	0.8	0.916	0.977	0.904	0.982	1.04
W fixed	0.977	1.01	0.997	1.03	0.962	0.957	0.913	1.05	1.08
Y fixed	0.854	1.01	1.04	1	0.931	0.846	0.866	1.02	0.997
pThr fixed	1.01	1	3.53	66.5	0.946	1.02	1.15	1.16	0.927
pTyr fixed	1.14	1.04	2.26	2.62	1.66	1.13	1	1.15	0.929

PRKG2, construct: Full length, human (from UniProt Q13237)
relative phosphorylation
Conditions	at +1	at +2	at +3	at +4	at -1	at -2	at -3	at -4	at -5
A fixed	0.876	1.35	1.04	0.834	0.761	0.368	0.816	1.28	1.24
D fixed	0.313	0.408	0.703	0.573	0.421	0.132	0.147	0.472	0.416
E fixed	0.45	0.386	0.697	0.601	0.361	0.113	0.206	0.584	0.415
F fixed	1.34	1.09	0.948	0.919	0.928	0.285	0.477	0.753	0.859
G fixed	0.563	0.911	1.2	1.07	0.529	0.387	0.983	1.23	1.21
H fixed	1.02	1.39	1.42	1.21	1.18	0.662	1.09	0.997	1.05
I fixed	1.56	1.16	0.83	1.01	0.993	0.24	0.337	0.731	0.883
K fixed	1.06	1.21	1.29	1.05	1.78	4.63	2.46	1.74	2.05
L fixed	1.29	0.936	0.943	0.883	1.16	0.321	0.376	0.789	0.745
M fixed	1.36	0.935	0.893	1.1	1.12	0.261	0.412	0.896	0.722
N fixed	0.801	0.765	0.893	1.04	0.921	0.436	0.577	0.766	0.803
P fixed	0.28	0.748	0.932	1.55	1.26	0.349	1.32	1.14	1.07
Q fixed	1.11	0.962	0.924	1.04	0.897	0.465	0.832	0.968	0.836
R fixed	1.41	1.21	1.49	1	1.76	7.58	5.47	2.24	2.01
V fixed	1.9	1.44	0.927	0.937	1.07	0.234	0.399	0.928	0.905
W fixed	0.766	1.01	0.832	1.29	0.66	0.283	0.514	0.762	0.884
Y fixed	0.901	1.09	1.04	0.892	1.2	0.265	0.575	0.716	0.902
pThr fixed	0.816	0.427	0.557	0.911	0.426	0.306	0.471	0.756	0.666
pTyr fixed	0.634	0.543	0.976	0.751	0.502	0.277	0.437	0.502	0.698

CDC42BPA, construct: aa1-473, human (from UniProt Q5VT25)
relative phosphorylation
Conditions	at +1	at +2	at +3	at +4	at -1	at -2	at -3	at -4	at -5
A fixed	0.571	0.98	0.605	0.722	0.552	0.403	0.476	0.689	0.776
D fixed	0.475	0.764	0.723	0.799	0.668	0.306	0.342	0.53	0.483
E fixed	0.435	0.379	0.701	0.719	0.436	0.226	0.23	0.498	0.321
F fixed	0.802	1.2	1.15	1.1	0.645	0.519	0.424	0.758	0.814
G fixed	0.849	1.06	1.32	0.933	0.984	0.431	0.442	0.765	0.629
H fixed	0.961	1.06	1.27	1.17	1.27	1.25	1.3	1.22	1.04
I fixed	1.61	1.56	0.911	0.783	0.453	0.267	0.295	0.651	0.688
K fixed	0.961	1.01	1.56	1.21	2.71	2.5	2.6	2.28	3.39
L fixed	1.79	1.52	0.789	0.94	1.33	0.416	0.329	0.709	0.771
M fixed	1.45	0.918	0.745	0.872	1.01	0.507	0.354	0.803	0.632
N fixed	1.84	0.88	0.914	1.15	1.15	0.855	0.534	0.893	0.688
P fixed	0.35	1.1	0.983	1.2	1.28	0.482	0.496	0.995	0.666
Q fixed	1.18	0.681	1.3	1.06	1.13	0.973	0.75	0.847	0.911
R fixed	1.17	0.868	1.01	1.04	1.45	5.97	7.05	3.1	2.99
V fixed	0.898	1.08	0.702	0.777	0.529	0.292	0.282	0.641	0.586
W fixed	0.867	0.952	1.12	1.53	0.605	0.852	0.622	0.902	0.809
Y fixed	0.786	1.01	1.18	0.99	0.798	0.744	0.469	0.718	0.814
pThr fixed	0.636	0.97	0.873	1.38	0.283	0.304	0.369	0.547	0.552
pTyr fixed	1.24	0.795	0.785	1.13	0.396	0.353	0.378	0.441	0.391

TSSK2, construct: Full length, human (from UniProt Q96PF2)
relative phosphorylation
Conditions	at +1	at +2	at +3	at +4	at -1	at -2	at -3	at -4	at -5
A fixed	0.97	0.852	0.804	0.774	1.18	1.86	1.24	1.3	1.2
D fixed	0.871	0.578	1.44	0.8	0.771	0.379	0.466	0.655	0.247
E fixed	1.25	0.793	0.998	0.629	0.932	0.42	0.671	1.04	0.216
F fixed	1.06	1.27	1.37	1.43	0.685	0.699	0.589	0.583	0.882
G fixed	0.625	0.388	0.688	0.663	0.74	0.939	1.19	1.22	0.439
H fixed	1.05	2.95	1.53	0.822	0.874	0.952	0.933	1.12	0.518
I fixed	0.683	1.3	0.642	1.47	0.673	0.954	0.734	0.816	1.75
K fixed	1.41	0.47	1.04	0.766	1.68	2.3	1.86	1.99	0.569
L fixed	0.92	1.27	0.834	1.98	0.847	0.55	0.67	0.877	3.08
M fixed	0.965	1.1	0.944	1.51	0.893	0.725	0.668	1.19	1.32
N fixed	1.25	0.861	1.49	0.942	0.96	1.17	0.824	0.829	0.393
P fixed	0.143	0.438	0.324	0.846	1.72	0.513	1.27	0.348	1.34
Q fixed	1.31	1.09	0.95	0.882	1.41	1.08	0.935	0.849	0.71
R fixed	1.78	0.574	1.11	0.648	1.49	1.77	2.96	1.85	0.952
V fixed	0.867	1.02	0.677	1.25	0.763	1.47	0.802	0.921	2.15
W fixed	0.789	0.915	1.28	0.941	0.6	0.452	0.598	0.594	0.541
Y fixed	1.06	1.13	0.887	0.646	0.788	0.779	0.587	0.808	0.69
pThr fixed	1.02	0.78	0.485	0.581	0.426	0.262	0.804	0.734	0.503
pTyr fixed	0.925	0.79	0.814	0.556	0.831	0.284	0.641	0.428	0.752

From the supplement of paper PMC9876800
